From paper PMC9574477 (Science (New York, N.Y.), 2022)

B1: LIH383 (peptide)
peptide: FGGFMRRK

What was measured:
[1] = biological target: ACKR3 wild type, Tango assay construct (UniProt P25106)
[2] = biological target: ACKR3 wild type, expressed in cells for the NanoBiT β-arrestin recruitment assay (UniProt P25106)
[3] = biological target: ACKR3 wild type, expressed in cells for the NanoBiT β-arrestin recruitment assay (UniProt P25106 1-362); test: cell-based or functional assay
ACKR3 wild type, expressed in cells for the NanoBiT β-arrestin recruitment assay (UniProt P25106 1-362), sequence (P25106 whole entry): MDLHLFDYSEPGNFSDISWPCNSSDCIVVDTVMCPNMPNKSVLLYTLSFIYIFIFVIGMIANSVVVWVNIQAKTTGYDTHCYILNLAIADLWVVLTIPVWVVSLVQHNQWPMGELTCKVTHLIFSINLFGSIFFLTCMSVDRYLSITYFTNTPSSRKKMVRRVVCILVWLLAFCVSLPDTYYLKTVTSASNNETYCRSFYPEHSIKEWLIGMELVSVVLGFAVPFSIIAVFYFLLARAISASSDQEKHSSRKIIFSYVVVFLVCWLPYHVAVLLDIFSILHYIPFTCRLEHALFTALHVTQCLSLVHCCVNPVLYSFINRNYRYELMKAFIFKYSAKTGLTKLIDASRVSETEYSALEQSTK

ACKR3 wild type, expressed in cells for the NanoBiT β-arrestin recruitment assay (UniProt P25106), sequence (P25106 whole entry): as above
ACKR3 wild type, Tango assay construct, sequence (P25106 whole entry): as above

Row | Molecule | β-arrestin-2 recruitment to ACKR3, Tango assay, EC50 [1] | β-arrestin-2 recruitment to ACKR3, NanoBiT, EC50 [2] | β-arrestin-2 recruitment to ACKR3, NanoBiT, EC50 [3]
1 | CXCL12 (from UniProt P48061 22-93) (ligand) | 3.9 nM | 0.75 nM | 
2 | B1 |  |  | 4.8 nM
